First the molecules themselves.
B1: T-lymphocyte activation antigen CD80 (Mus musculus), Q00609 (parent)
chain: MACNCQLMQDTPLLKFPCPRLILLFVLLIRLSQVSSDVDEQLSKSVKDKVLLPCRYNSPHEDESEDRIYWQKHDKVVLSVIAGKLKVWPEYKNRTLYDNTTYSLIILGLVLSDRGTYSCVVQKKERGTYEVKHLALVKLSIKADFSTPNITESGNPSADTKRITCFASGGFPKPRFSWLENGRELPGINTTISQDPESELYTISSQLDFNTTRNHTIKCLIKYGDAHVSEDFTWEKPPEDPPDSKNTLVLFGAGFGAVITVVVIVVIIKCFCKHRSCFRRNEASRETNNSLTFGPEEALAEQTVFL

The variants in the assay derive from B1. The note with it: with pd1l1_mouse Cd274, Q9EP73.
Chain of pd1l1_mouse Cd274, Q9EP73 (Q9EP73 whole entry): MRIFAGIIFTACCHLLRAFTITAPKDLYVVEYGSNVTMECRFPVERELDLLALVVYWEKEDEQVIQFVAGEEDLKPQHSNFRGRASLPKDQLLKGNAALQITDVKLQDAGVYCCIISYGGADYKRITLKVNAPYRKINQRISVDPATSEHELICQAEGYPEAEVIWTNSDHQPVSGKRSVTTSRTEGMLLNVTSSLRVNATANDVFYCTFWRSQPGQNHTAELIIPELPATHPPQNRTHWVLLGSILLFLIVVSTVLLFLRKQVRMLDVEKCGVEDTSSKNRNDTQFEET
For the variant L107E, the “effect of a mutation on the interaction” value is reported as “disrupting interaction strength”.

Source of the values: IntAct's records for PubMed 31000591.
